B1: Endo-1,4-beta-xylanase A, P26514 (parent)
chain: MGSYALPRSGVRRSIRVLLLALVVGVLGTATALIAPPGAHAAESTLGAAAAQSGRYFGTAIASGRLSDSTYTSIAGREFNMVTAENEMKIDATEPQRGQFNFSSADRVYNWAVQNGKQVRGHTLAWHSQQPGWMQSLSGSALRQAMIDHINGVMAHYKGKIVQWDVVNEAFADGSSGARRDSNLQRSGNDWIEVAFRTARAADPSAKLCYNDYNVENWTWAKTQAMYNMVRDFKQRGVPIDCVGFQSHFNSGSPYNSNFRTTLQNFAALGVDVAITELDIQGAPASTYANVTNDCLAVSRCLGITVWGVRDSDSWRSEQTPLLFNNDGSKKAAYTAVLDALNGGDSSEPPADGGQIKGVGSGRCLDVPDASTSDGTQLQLWDCHSGTNQQWAATDAGELRVYGDKCLDAAGTSNGSKVQIYSCWGGDNQKWRLNSDGSVVGVQSGLCLDAVGNGTANGTLIQLYTCSNGSNQRWTRT

Variants of: B1
Conditions: Streptomyces lividans; pH 6; Thermal; CD; sodium phosphate 10 mM; structure 1XAS; whole UniProt chain shown

Variant | Tm [°C] | change of melting temperature, mutant - wild type (higher = more stable) [°C]
W126H | 67 | -1
W126F | 64 | -4
W126A | 70 | 2
W307H | 60.7 | -7.3
W307A | 63.3 | -4.7
W307F | 64.7 | -3.3
W315F | 68.8 | 0.8
W315A | 72.1 | 4.1
W315H | 68.2 | 0.2
Y213A | 63 | -5
Y213F | 67.1 | -0.9
Y213S | 69.6 | 1.6
